Measurements published in patent US20220332808A1, “HUMAN-DERIVED ANTI-HUNTINGTIN (HTT) ANTIBODIES AND USES THEREOF” (published 2022).
Values joined by “and” are separate entries in the source; they are usually repeats but may differ in a detail not shown here. Identical values can stand only once. Where no end group is shown, it is not given here.

T1: BSA-coupled polyP repeat peptide of Htt Exon1 (human, also: coupled to BSA)
T1 peptide: PPPPPPPPPPP

T2: C-terminal peptide of Htt Exon1 coated directly to the plate (not coupled to BSA) (human)
T2 peptide: PPGPAVAEEPLHRP

T3: BSA-coupled C-terminal peptide of Htt Exon1 (the 14 C-terminal amino acids) (human, also: coupled to BSA)
T3 peptide: PPGPAVAEEPLHRP

B1: NI-302.15F9 (antibody, V domains shown)
VH: EVQLVESGGGLVTPGGSLRLSCEASGFLFKNSSMNWVRQTPGKGLEWVSSIDTSATNYKYYADSVKGRFTISRDDATNSLYLQMNSLRADDTATYYCARGYYTPRDFDYWGQGTLVTVSS
VL: DVVMTQSPQTLSVSLGQAASISCRSSQSLLYRDNNTYLNWFHQRPGQSPRRLIYRASDRDSGVPDRFSGGGSGTDFTLKISGVEAEDVGTYYCMQGTHWPRTFGQGTKVEIK
B2: NI-302.63F3 (antibody, V domains shown)
VH: QVQLVQSGSAFKKPGTSVKVSCKASGYTFETRSMNWVRQAPGQGLEYMGWINTNTGNRTYVQAFRGRFVFSLDTSVSTAYLQISNLKTEDTAVYYCARGAGGGYWFDSWGQGTLVTVSS
VL: DIQMTQSPDSLAVSLGERATINCKSNQSLFYSSNNNNYLAWYQHKSGQPPKLLVYWGSTRESGVPDRFSGSGSGTDFTLTISSLQAEDVAIYYCHQYYHNPYTFGQGTKLEIK
B3: NI-302.33C11 (antibody, V domains shown)
VH: EVQLVESGGGVVQPGNSLRLSCAASGFRFSDFGMHWVRQAPGKGLEWLALIWYDGGYKYYADSVKGRFTISRDNSKNTMFLQMNSLRAEDTAVYYCATHLEYCSRTTCYLGHWGQGTLVTVSS
VL: DIQLTQSPSFLSASVGDTVTFTCRASQGISDYLAWFQQKPGIAPKLLIYAASTLQTGVPSRFSGSGSGTEFTLTIRSLQSEDFGTYYCQQLKTYPYTFGQGTKVEIK
B4: NI-302.35C1 (antibody, V domains shown)
VH: EVQLVESGGNLVQPGGSLRLSCTASGFTFSITALSWVRQAPEKGPQWVSAITGNAYGTYYADSVKGRFTISRDNAKNTLYLQMNGLRAEDTAIYYCVKGIASDSSGYSAFWGPGTLVTVSS
VL: EIVLTQSPATLSLSPGERATLSCRASQSVDNQFAWYQQKPGQAPRLLIYDASRRAPGIPDRFSGSGSGTDFTLTISSLEPEDFAIYYCQHRYTWLYTFGQGTRLEIK
B5: NI-302.7D8 (antibody, V domains shown)
VH: QVQLVQSGSELKKPGASVKVSCKASGYNFNNYAINWLRQAPGQGLEWMGWINTITGHPTYAQGFKGRFVFSLDTSVSTAYLQISSLKPEDTAVYYCARTYSNYGEFDYWGQGTLVTVSS
VL: QSALTQPASVSGSRGQSITISCTGTSSDVGSYNLVSWYQQYPGKAPKLIIHEGSERPSGVSNRFSGSKSGNTASLTISGLQAEDEADYYCCSYAGTTTFVLFGGGTKLTVL

Tests used:
[1] = biological target: all four species: aggregated HD49, aggregated HD21, soluble GST-HD49 and GST-HD21 Htt Exon 1 proteins; assay: direct ELISA, coated at 5 µg/ml
[2] = biological target: GST-HttExon1Q49 (human) (UniProt P42858); assay: direct ELISA
[3] = biological target: HD21: huntingtin Exon1 protein with 21 polyQ repeats, GST tag cleaved off, aggregation reaction (human, UniProt P42858); assay: direct ELISA, coated at 5 µg/ml
Method: (§1) To determine the half maximal effective concentration (EC₅₀) of recombinant human-derived HTT antibody […] to soluble and aggregated huntingtin Exon1 proteins with 21 or 49 polyQ repeats direct ELISA was performed. In brief, 96 well microplates (Corning) were coated with either GST-HD21, GST-HD49 or aggregated HD21 or HD49 at a concentration of 5 μg/ml in coating buffer (15 mM Na2CO3, 35 mM NaHCO₃, pH 9.42). Nonspecific binding sites were blocked for 1 h at RT with PBS/0.1% Tween®-20 containing 2% BSA (Sigma-Aldrich, Buchs, Switzerland). Primary antibodies were diluted to the indicated concentrations and incubated 1 h at RT. Binding was determined using either a donkey anti-human IgG Fcγ-specific antibody conjugated with HRP or a goat anti-mouse IgG (H+L)-specific antibody conjugated with HRP, followed by measurement of HRP activity in a standard colorimetric assay. Subsequently, EC₅₀ values were estimated by a non-linear regression using GraphPad Prism software (San Diego, USA).
(§2) To determine the half maximal effective concentration (EC₅₀) of recombinant human-derived HTT antibodies NI-302.35C1 and NI-302.72F10 to soluble and aggregated HTT Exon1 proteins with 21 or 49 polyQ repeats direct ELISA and EC50 determination was performed as described in Example 6, supra.
(§3) To determine the half maximal effective concentration (EC₅₀) of recombinant human-derived HTT antibody NI-302.7D8 to soluble and aggregated HTT Exon1 proteins with 21 or 49 polyQ repeats direct ELISA and EC50 determination was performed as described in Example 6, supra.

[4] = biological target: HD49: huntingtin Exon1 protein with 49 polyQ repeats, GST tag cleaved off, aggregation reaction (human, UniProt P42858); assay: direct ELISA, coated at 5 µg/ml
Method: as §1, §2, §3

[5] = biological target: GST-HttExon1Q21 (human) (UniProt P42858); assay: direct ELISA, coated at 5 µg/ml
[6] = biological target: GST-HttExon1Q49 (human) (UniProt P42858); assay: direct ELISA, coated at 5 µg/ml
[7] = biological target: T1, BSA-coupled polyP repeat peptide of Htt …; assay: direct ELISA on BSA-coupled Htt Exon1 peptides
Method: (§4) To determine the half maximal effective concentration (EC₅₀) of recombinant human-derived HTT antibody NI-302.33C11 to BSA-coupled peptide fragments of the huntingtin Exon 1 direct ELISA with BSA-coupled Htt Exon1 domain peptides was performed.
(§5) In brief, 96 well microplates (Corning) were coated with BSA-coupled synthetic peptides (Schafer-N, Denmark) of the N-terminal amino acid 1-19 ([…], SEQ ID No.: 93), the P-rich domain sequence ([…], SEQ ID No.: 94), the polyP repeat sequence ([…], SEQ ID No.: 95) or the 14 C-terminal amino acids ([…], SEQ ID No.: 96) or with the full lengths GST-HD49 Exon 1 protein at […] in coating buffer (15 mM Na2CO3, 35 mM NaHCO₃, pH 9.42). Non-specific binding sites were blocked for 1 h at RT with PBS/0.1% Tween®-20 containing 2% BSA (Sigma-Aldrich, Buchs, Switzerland). Primary antibodies were diluted to the indicated concentrations and incubated 1 h at RT. Binding was determined using donkey anti-human IgG Fcγ-specific antibody conjugated with HRP, followed by measurement of HRP activity in a standard colorimetric assay and the EC₅₀ values were estimated by a non-linear regression using GraphPad Prism software (San Diego, USA). […]

[8] = biological target: T2, C-terminal peptide of Htt Exon1 coated …; assay: direct ELISA, peptide coated directly
[9] = biological target: T3, BSA-coupled C-terminal peptide of Htt …; assay: direct ELISA on BSA-coupled Htt Exon1 peptides
Method: as §4, §5

Chain of GST-HttExon1Q49 (human) (P42858 1-88, change not shown): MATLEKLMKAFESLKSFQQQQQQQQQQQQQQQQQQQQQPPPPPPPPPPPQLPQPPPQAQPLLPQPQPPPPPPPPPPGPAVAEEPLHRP
Chain of GST-HttExon1Q21 (human) (P42858 1-88, change not shown): as above

Binder | EC50 [1] | EC50 [2] | EC50 [4] | EC50 [6] | further results
B1 | 5000 pM and 35000 pM |  |  |  | fold preference of HD49 vs. HD21 [1]: 5 fold
B2 | 200 to 400 pM |  |  |  | 
B3 |  | 30 pM | ~100 pM | 100 pM | EC50 [3]: ~100 pM; EC50 [5]: 100 pM; EC50 [7]: 30 pM
B4 |  | 3200 pM | ~2700 pM |  | EC50 [8]: > 100000 pM; EC50 [9]: ~700 pM
B5 |  |  | 17000 pM | 6000 pM | 
